Measured values as given in the supplement of paper PMC10567573.

B1: ZNF449 (parent)
chain: QLTGHQRIHSGEEPHKCPECGKRF

Variants of: B1
Experiment: protein stability index of a GFP-peptide fusion (GPS, HEK-293T) (PSI 1-6); higher = more stable
Details: c terminus: a fixed tail appended
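Note: lentivirally expressed fusions sorted by FACS into six bins by GFP to DsRed ratio, PSI derived from sequencing read proportions per bin multiplied by bin number.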

Protein stability index, by site and new letter:
Q1: A 4.5 | C 4.74 | D 3.45 | E 3.42 | F 2.09 | G 4.83 | H 3.69 | I 3.3 | K 3.61 | L 3.84 | M 2.5 | N 4.09 | P 3.96 | R 3.87 | S 4.72 | T 4.31 | V 3.76 | W 2.03 | Y 2.71
L2: A 4.57 | C 5.34 | D 5.01 | E 4.71 | F 3.89 | G 4.77 | H 4.58 | I 3.1 | K 4.8 | M 4.86 | N 4.59 | P 4.89 | Q 5.16 | R 4.33 | S 4.6 | T 4.64 | V 4.65 | W 4.53 | Y 3.66
T3: C 4.82 | D 4.99 | E 4.59 | F 4.01 | G 3.69 | H 4.45 | I 2.64 | K 3.99 | L 3.6 | M 4.15 | N 2.66 | P 4.61 | Q 3.66 | R 3.48 | S 2.94 | V 3.12 | W 2.77 | Y 3.54
G4: A 4.34 | C 4.29 | D 4.09 | E 4.38 | F 3.5 | H 3.94 | I 3.41 | K 3.48 | L 3.83 | M 4.18 | N 3.42 | P 4.14 | Q 4.7 | R 3.69 | S 4.57 | T 4.43 | V 3.52 | W 2.78 | Y 3.95
H5: A 3.17 | C 4.86 | D 4.38 | E 4.56 | F 2.94 | G 4.45 | I 4.18 | K 4.46 | L 3.45 | M 3.67 | N 3.73 | P 4.48 | Q 3.65 | R 4.03 | S 3.41 | T 4.08 | V 3.56 | W 2.89 | Y 2.92
Q6: A 4.67 | C 4.23 | D 4.77 | E 3.77 | F 2.85 | G 3.44 | H 4.16 | I 3 | K 3.43 | L 3.83 | M 3.68 | N 3.77 | P 4.04 | R 2.88 | S 4.24 | T 3.84 | V 3.27 | W 3.05 | Y 3.97
R7: A 4.69 | C 5.01 | D 4.85 | E 4.08 | F 3.33 | G 4.56 | H 4.78 | I 4.58 | K 4.31 | L 4.7 | M 4.43 | N 3.52 | P 4.44 | Q 4.22 | S 4.83 | T 4.74 | V 3.78 | W 3.36 | Y 4.14
I8: A 4.54 | C 4.75 | D 4.71 | E 4.5 | F 3.96 | G 4.59 | H 3.17 | K 3.63 | L 3.47 | M 4.67 | N 4.24 | P 3.71 | Q 4.23 | R 3.75 | S 4.51 | T 4.42 | V 3.63 | W 4.27 | Y 4.53
H9: A 3.57 | C 4.02 | D 4.9 | E 4.61 | F 3.78 | G 3.52 | I 3.8 | K 3.81 | L 3.98 | M 3.59 | N 4.13 | P 4.28 | R 3.54 | S 4.12 | T 3.71 | V 4.48 | W 3.34
S10: A 4.01 | C 4.11 | D 4.33 | E 4.48 | F 4.12 | H 4.24 | I 3.6 | K 3.87 | L 4.12 | M 3.36 | N 3.85 | P 4.47 | Q 3.91 | R 3.55 | T 4.35 | V 4.09 | W 4.31 | Y 3.45
G11: A 4.64 | C 4.88 | D 4.5 | E 4.75 | F 3.77 | H 4.23 | I 3.52 | K 4.09 | L 3.87 | M 3.21 | N 3.86 | P 4.25 | Q 4.01 | R 4.14 | S 4.17 | T 3.96 | V 3.64 | W 3.76 | Y 3.87
E12: A 5.14 | C 3.35 | D 4.15 | F 2.54 | G 3.99 | H 4.05 | I 3.63 | K 3.43 | L 4.05 | M 3.73 | N 4.21 | P 3.48 | Q 3.29 | R 4.01 | S 3.96 | T 3.43 | V 4.17 | W 3.99 | Y 3.41
E13: A 4.21 | C 4.11 | D 4.46 | F 3.09 | G 4.09 | H 3.62 | I 3.97 | K 4.59 | L 2.85 | M 3.57 | N 3.42 | P 4.1 | Q 3.63 | R 3.54 | T 3.39 | V 3.33 | W 3.57 | Y 3.15
P14: A 4.33 | C 4.22 | D 4.84 | E 4.09 | F 4.38 | G 4.5 | H 3.88 | I 4.5 | K 3.98 | L 3.7 | M 4.05 | N 4.49 | Q 4.75 | R 3.75 | S 4.88 | V 4.19 | W 4.5 | Y 4.65
H15: A 4.68 | C 5.22 | E 4.28 | F 4.22 | I 4.8 | K 3.66 | L 3.65 | M 3.68 | N 4.52 | P 3.94 | Q 4.31 | R 3.76 | S 4.06 | T 4.52 | V 2.18 | Y 4.3
K16: A 4.36 | C 3.84 | D 4.82 | E 4.69 | F 3.48 | G 3.97 | H 5 | I 4.48 | L 4.48 | M 3.94 | N 4.54 | P 4.23 | Q 4.3 | R 3.41 | S 5.11 | T 4.43 | V 4.58 | W 4.14 | Y 3.61
C17: A 4.4 | D 5.48 | E 4.89 | F 4.6 | G 3.56 | H 4.17 | I 4.4 | K 5.14 | L 4.58 | M 4.72 | N 4.3 | P 4.71 | Q 4.38 | R 4.36 | S 4.43 | T 3.98 | V 4.76 | W 3.92 | Y 4.26
P18: A 3.92 | C 3.74 | D 5.02 | E 4.17 | F 3.41 | G 4.21 | H 3.61 | I 3.88 | K 4.15 | L 3.92 | M 4.14 | N 4.3 | Q 4.02 | R 4.4 | S 4.46 | T 3.98 | V 4.55 | W 3.4 | Y 3.64
E19: C 2
